The test concerns the target C276A USP2 catalytic core (inactive active-site mutant) (human) (UniProt O75604). Nature of the test: stopped-flow fluorescence.

C276A USP2 catalytic core (inactive active-site mutant) (human), sequence (O75604 259-605 C276A): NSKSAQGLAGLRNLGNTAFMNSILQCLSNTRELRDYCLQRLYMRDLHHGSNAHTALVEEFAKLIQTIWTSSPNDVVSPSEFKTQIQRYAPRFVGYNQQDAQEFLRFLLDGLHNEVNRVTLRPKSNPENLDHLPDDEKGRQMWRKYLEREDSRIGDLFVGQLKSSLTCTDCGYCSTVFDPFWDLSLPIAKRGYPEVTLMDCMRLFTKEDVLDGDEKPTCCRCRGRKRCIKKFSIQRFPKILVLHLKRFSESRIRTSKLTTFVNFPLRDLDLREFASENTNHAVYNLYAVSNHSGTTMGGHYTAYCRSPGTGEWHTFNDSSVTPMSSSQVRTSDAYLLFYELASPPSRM

Turning to “native K48-linked diubiquitin (from UniProt P0CG48 1-76)”, the k1 (first step, association) stood at 230000 M⁻¹ s⁻¹ and the k−1 (first step, dissociation) is 0.06 s⁻¹.

For the origin of these results see publication PMC3617563.
